T1: IGFBP7 (recombinant; preparation not specified) (UniProt Q16270 27-282)
T1 construct: also called immobilized IGFBP7; recombinant IGFBP7
T1 sequence (looked up): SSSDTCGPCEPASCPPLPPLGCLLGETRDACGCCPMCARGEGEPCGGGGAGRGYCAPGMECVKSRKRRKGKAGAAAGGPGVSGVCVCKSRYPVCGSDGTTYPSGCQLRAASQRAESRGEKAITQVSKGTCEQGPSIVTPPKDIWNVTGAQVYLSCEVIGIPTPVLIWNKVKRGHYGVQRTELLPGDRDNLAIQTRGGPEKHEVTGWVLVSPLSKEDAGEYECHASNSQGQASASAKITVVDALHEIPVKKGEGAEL

T2: recombinant custom-synthesized IGFBP7 (UniProt Q16270 27-282)
T2 construct: also called custom-synthesized recombinant IGFBP7
T2 sequence (looked up): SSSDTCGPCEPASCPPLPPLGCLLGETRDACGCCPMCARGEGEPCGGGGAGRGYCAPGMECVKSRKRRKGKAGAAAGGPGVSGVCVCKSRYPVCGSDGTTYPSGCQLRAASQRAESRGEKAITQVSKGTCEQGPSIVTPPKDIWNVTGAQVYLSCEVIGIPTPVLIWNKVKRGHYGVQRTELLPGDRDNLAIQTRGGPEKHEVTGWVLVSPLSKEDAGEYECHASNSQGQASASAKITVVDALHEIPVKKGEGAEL

T3: recombinant protein IGFBP7 from R&D (UniProt Q16270 27-282)
T3 construct: Bought protein immobilized on the Biacore chip; also called recombinant IGFBP7
T3 sequence (looked up): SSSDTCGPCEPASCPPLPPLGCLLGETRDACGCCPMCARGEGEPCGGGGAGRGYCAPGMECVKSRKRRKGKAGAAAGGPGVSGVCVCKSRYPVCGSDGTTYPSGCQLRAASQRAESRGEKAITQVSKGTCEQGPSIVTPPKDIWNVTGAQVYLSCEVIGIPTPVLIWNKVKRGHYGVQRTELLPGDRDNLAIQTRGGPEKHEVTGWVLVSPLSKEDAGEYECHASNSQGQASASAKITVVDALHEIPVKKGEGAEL


Assays:
[1] = target: T1, IGFBP7 (recombinant; preparation not …); assay: SPR, fit to a steady state model
[2] = target: T2, recombinant custom-synthesized IGFBP7; assay: SPR, steady state analysis, IGFBP7 as ligand
[3] = target: T3, recombinant protein IGFBP7 from R&D; assay: SPR, steady state analysis, IGFBP7 as ligand
[4] = target: T3, recombinant protein IGFBP7 from R&D; assay: SPR, steady state analysis as Scatchard plot, IGFBP7 as ligand

| Binder | Kd [1] | Kd [2] | Kd [3] | Kd [4] |
| --- | --- | --- | --- | --- |
| sdAb clone 4.6-IGFBP7 (VHH, also called IGFBP7-4.6; not shown: c-Myc detection tag and 5xHis purification tag added at the C-terminus by vector pSJF2) VHH: QVKLEESGGGSVQPGGSLRLSCAASGRTFSRLAMGWFRQAPGKERELVAGISRSGDGTHYAYSVKGRFTISRDNAANTVELQMNSLKPEDTAVYFCAAARTAFYYYGNDYNYWGQGTQVTVSS | ~1000 nM |  |  |  |
| sdAb clone 4.43-IGFBP7 (VHH, not shown: c-Myc detection tag and 5xHis purification tag added at the C-terminus by vector pSJF2) VHH: QVKLEESGGGLVQAGGSLRLSCAASGRTSRRYAMGWFRQAPGKEREFVAGISRSGDGTHYAYSVKGRFTISRDNAANTVELQMNSLKPEDTAVYFCAAARTAFYYYGNDYNYWGQGTQVTVSS |  | 30 nM | 40 nM | 50 nM |

From US20120045391A1 (NATIONAL RESEARCH COUNCIL CANADA, published 2012)
